The results in this text go back to patent US11471462B2, “Compositions and methods for detecting and treating diabetes” (THE BROAD INSTITUTE, INC., priority 2016, dated 2022).

For the experiment, the system named is SLC16A11. Kind of experiment: SLC16A11 protein-protein interaction study (immunoprecipitation, quantitative mass spectrometry). Conditions: putative SLC16A11^REF interaction partners; immunoprecipitation from HEK293T cells vs empty vector control; Blandt-Altman. Also on record: species or system human.

B1: STT3A (protein)
chain: MTKFGFLRLSYEKQDTLLKLLILSMAAVLSFSTRLFAVLRFESVIHEFDPYFNYRTTRFLAEEGFYKFHNWFDDRAWYPLGRIIGGTIYPGLMITSAAIYHVLHFFHITIDIRNVCVFLAPLFSSFTTIVTYHLTKELKDAGAGLLAAAMIAVVPGYISRSVAGSYDNEGIAIFCMLLTYYMWIKAVKTGSICWAAKCALAYFYMVSSWGGYVFLINLIPLHVLVLMLTGRFSHRIYVAYCTVYCLGTILSMQISFVGFQPVLSSEHMAAFGVFGLCQIHAFVDYLRSKLNPQQFEVLFRSVISLVGFVLLTVGALLMLTGKISPWTGRFYSLLDPSYAKNNIPIIASVSEHQPTTWSSYYFDLQLLVFMFPVGLYYCFSNLSDARIFIIMYGVTSMYFSAVMVRLMLVLAPVMCILSGIGVSQVLSTYMKNLDISRPDKKSKKQQDSTYPIKNEVASGMILVMAFFLITYTFHSTWVTSEAYSSPSIVLSARGGDGSRIIFDDFREAYYWLRHNTPEDAKVMSWWDYGYQITAMANRTILVDNNTWNNTHISRVGQAMASTEEKAYEIMRELDVSYVLVIFGGLTGYSSDDINKFLWMVRIGGSTDTGKHIKENDYYTPTGEFRVDREGSPVLLNCLMYKMCYYRFGQVYTEAKRPPGFDRVRNAEIGNKDFELDVLEEAYTTEHWLVRIYKVKDLDNRGLSRT
On to B1, for which the “BA log fold change” value was found to be 1.27.

B2: DHCR7 (protein)
chain: MAAKSQPNIPKAKSLDGVTNDRTASQGQWGRAWEVDWFSLASVIFLLLFAPFIVYYFIMACDQYSCALTGPVVDIVTGHARLSDIWAKTPPITRKAAQLYTLWVTFQVLLYTSLPDFCHKFLPGYVGGIQEGAVTPAGVVNKYQINGLQAWLLTHLLWFANAHLLSWFSPTIIFDNWIPLLWCANILGYAVSTFAMVKGYFFPTSARDCKFTGNFFYNYMMGIEFNPRIGKWFDFKLFFNGRPGIVAWTLINLSFAAKQRELHSHVTNAMVLVNVLQAIYVIDFFWNETWYLKTIDICHDHFGWYLGWGDCVWLPYLYTLQGLYLVYHPVQLSTPHAVGVLLLGLVGYYIFRVANHQKDLFRRTDGRCLIWGRKPKVIECSYTSADGQRHHSKLLVSGFWGVARHFNYVGDLMGSLAYCLACGGGHLLPYFYIIYMAILLTHRCLRDEHRCASKYGRDWERYTAAVPYRLLPGIF
For B2, the “BA log fold change” value came to 1.69.

B3: DNAJC3 (protein)
chain: GVNADVEKHLELGKKLLAAGQLADALSQFHAAVDGDPDNYIAYYRRATVFLAMGKSKAALPDLTKVIQLKMDFTAARLQRGHLLLKQGKLDEAEDDFKKVLKSNPSENEEKEAQSQLIKSDEMQRLRSQALNAFGSGDYTAAIAFLDKILEVCVWDAELRELRAECFIKEGEPRKAISDLKAASKLKNDNTEAFYKISTLYYQLGDHELSLSEVRECLKLDQDHKRCFAHYKQVKKLNKLIESAEELIRDGRYTDATSKYESVMKTEPSIAEYTVRSKERICHCFSKDEKPVEAIRVCSEVLQMEPDNVNALKDRAEAYLIEEMYDEAIQDYETAQEHNENDQQIREGLEKAQRLLKQSQKRDYYKILGVKRNAKKQEIIKAYRKLALQWHPDNFQNEEEKKKAEKKFIDIAAAKEVLSDPEMRKKFDDGEDPLDAESQQGGGGNPFHRSWNSWQGFNPFSSGGPFRFKFHFN
Regarding B3, the “BA log fold change” value stood at 1.22.

B4: HEATR2 (protein)
chain: AALGVAEAVAAPHPAEGAETAEAVELSRALSRLLPGLEADSKPGRRRALEALRRALEEPGPAADPTAFQGPWARLLLPRLLRCLSDPAEGCRALAVHLLDLGLRRAARPRDALPRLLPALAARLAGPVPARRPPEACEELRLALVQLLGLAVDLCGAALAPHLDDALRALRCSLLDPFAAVRRESCSCAAALAQATPDHFHMQSESLIGPLMQTISHQHWKVRVAAIEATGAVIHFGNGKSVDDVLSHFAQRLFDDVPQVRRAVASVVGGWLLCLRDRYSFFHKLIPLLLSSLNDEVPEVRQLAASLWEDVGLQWQKENEEDLKDKLDFAPPTPPHYPPHERRPVLGCRELVFRNLSKILPALCHDITDWVVGTRVKSAQLLPVLLLHAEDHATQHLEVVLRTLFQACTDEEAAVVQSCTRSAELVGTFVSPEVFLKLILSTLKKTPSASGLLVLASAMRGCPREALQPHLAAIATELAQAHICQASENDLYLERLLLCVQALVSVCHEDCGVASLQLLDVLLTIVALAGATGLRDKAQETMDSLAMVEGVSSCQDLYRKHIGPLLERVTASHLDWTAHSPELLQFSVIVAQSGPALGEALPHVVPTLRACLQPSQDPQMRLKLFSILSTVLLRATDTINSQGQFPSYLETVTKDILAPNLQWHAGRTAAAIRTAAVSCLWALTSSEVLSAEQIRDVQETLMPQVLTTLEEDSKMTRLISCRIINTFLKTSGGMTDPEKLIRIYPELLKRLDDVSNDVRMAAASTLVTWLQCVKGANAKSYYQSSVQYLYRELLVHLDDPERAIQDAILEVLKEGSGLFPDLLVRETEAVIHKHRSATYCEQLLQHVQAVPATQ
As to B4, the “BA log fold change” value is reported as 1.03.

B5: TUBA4A (protein)
chain: MRECISVHVGQAGVQMGNACWELYCLEHGIQPDGQMPSDKTIGGGDDSFTTFFCETGAGKHVPRAVFVDLEPTVIDEIRNGPYRQLFHPEQLITGKEDAANNYARGHYTIGKEIIDPVLDRIRKLSDQCTGLQGFLVFHSFGGGTGSGFTSLLMERLSVDYGKKSKLEFSIYPAPQVSTAVVEPYNSILTTHTTLEHSDCAFMVDNEAIYDICRRNLDIERPTYTNLNRLISQIVSSITASLRFDGALNVDLTEFQTNLVPYPRIHFPLATYAPVISAEKAYHEQLSVAEITNACFEPANQMVKCDPRHGKYMACCLLYRGDVVPKDVNAAIAAIKTKRSIQFVDWCPTGFKVGINYQPPTVVPGGDLAKVQRAVCMLSNTTAIAEAWARLDHKFDLMYAKRAFVHWYVGEGMEEGEFSEAREDMAALEKDYEEVGIDSYEDEDEGEE
For the molecule B5, the “BA log fold change” value was 1.02.

B6: DNAJC7 (protein)
chain: AAAAECDVVMAATEPELLDDQEAKREAETFKEQGNAYYAKKDYNEAYNYYTKAIDMCPKNASYYGNRAATLMMLGRFREALGDAQQSVRLDDSFVRGHLREGKCHLSLGNAMAACRSFQRALELDHKNAQAQQEFKNANAVMEYEKIAETDFEKRDFRKVVFCMDRALEFAPACHRFKILKAECLAMLGRYPEAQSVASDILRMDSTNADALYVRGLCLYYEDCIEKAVQFFVQALRMAPDHEKACIACRNAKALKAKKEDGNKAFKEGNYKLAYELYTEALGIDPNNIKTNAKLYCNRGTVNSKLRKLDDAIEDCTNAVKLDDTYIKAYLRRAQCYMDTEQYEEAVRDYEKVYQTEKTKEHKQLLKNAQLELKKSKRKDYYKILGVDKNASEDEIKKAYRKRALMHHPDRHSGASAEVQKEEEKKFKEVGEAFTILSDPKKKTRYDSGQDLDEEGMNMGDFDPNNIFKAFFGGPGGFSFEASGPGNFFFQFG
As to B6, the “BA log fold change” value is 1.05.

B7: BRAT1 (protein)
chain: MDPECAQLLPALCAVLVDPRQPVADDTCLEKLLDWFKTVTEGESSVVLLQEHPCLVELLSHVLKVQDLSSGVLSFSLRLAGTFAAQENCFQYLQQGELLPGLFGEPGPLGRATWAVPTVRSGWIQGLRSLAQHPSALRFLADHGAVDTIFSLQGDSSLFVASAASQLLVHVLALSMRGGAEGQPCLPGGDWPACAQKIMDHVEESLCSAATPKVTQALNVLTTTFGRCQSPWTEALWVRLSPRVACLLERDPIPAAHSFVDLLLCVARSPVFSSSDGSLWETVARALSCLGPTHMGPLALGILKLEHCPQALRTQAFQVLLQPLACVLKATVQAPGPPGLLDGTADDATTVDTLLASKSSCAGLLCRTLAHLEELQPLPQRPSPWPQASLLGATVTVLRLCDGSAAPASSVGGHLCGTLAGCVRVQRAALDFLGTLSQGTGPQELVTQALAVLLECLESPGSSPTVLKKAFQATLRWLLSSPKTPGCSDLGPLIPQFLRELFPVLQKRLCHPCWEVRDSALEFLTQLSRHWGGQADFRCALLASEVPQLALQLLQDPESYVRASAVTAMGQLSSQGLHAPTSPEHAEARQSLFLELLHILSVDSEGFPRRAVMQVFTEWLRDGHADAAQDTEQFVATVLQAASRDLDWEVRAQGLELALVFLGQTLGPPRTHCPYAVALPEVAPAQPLTEALRALCHVGLFDFAFCALFDCDRPVAQKSCDLLLFLRDKIASYSSLREARGSPNTASAEATLPRWRAGEQAQPPGDQEPEAVLAMLRSLDLEGLRSTLAESSDHVEKSPQSLLQDMLATGGFLQGDEADCY
Consider B7, for which the “BA log fold change” value turned out to be 1.04.

B8: QIL1 (protein)
chain: MVARVWSLMRFLIKGSVAGGAVYLVYDQELLGPSDKSQAALQKAGEVVPPAMYQFSQYVCQQTGLQIPQLPAPPKIYFPIRDSWNAGIMTVMSALSVAPSKAREYSKEGWEYVKARTK
Turning to B8, the “BA log fold change” value stood at 1.08.

B9: TUBA1C (protein)
chain: MTAWFNGVEELGRDECFVCLELDPSNGSFLNAKLYISNWILIYFTRTLQLPAPFNTCTSSKSRGEPGCDSKRECISIHVGQAGVQIGNACWELYCLEHGIQPDGQMPSDKTIGGGDDSFNTFFSETGAGKHVPRAVFVDLEPTVIDEVRTGTYRQLFHPEQLITGKEDAANNYARGHYTIGKEIIDLVLDRIRKLADQCTGLQGFLVFHSFGGGTGSGFTSLLMERLSVDYGKKSKLEFSIYPAPQVSTAVVEPYNSILTTHTTLEHSDCAFMVDNEAIYDICRRNLDIERPTYTNLNRLISQIVSSITASLRFDGALNVDLTEFQTNLVPYPRIHFPLATYAPVISAEKAYHEQLTVAEITNACFEPANQMVKCDPRHGKYMACCLLYRGDVVPKDVNAAIATIKTKRTIQFVDWCPTGFKVGINYQPPTVVPGGDLAKVQRAVCMLSNTTAVAEAWARLDHKFDLMYAKRAFVHWYVGEGMEEGEFSEAREDMAALEKDYEEVGADSADGEDEGEEY
Regarding B9, the “BA log fold change” value is 1.04.

B10: PSMA3 (protein)
chain: SSIGTGYDLSASTFSPDGRVFQVEYAMKAVENSSTAIGIRCKDGVVFGVEKLVLSKLYEEGSNKRLFNVDRHVGMAVAGLLADARSLADIAREEASNFRSNFGYNIPLKHLADRVAMYVHAYTLYSAVRPFGCSFMLGSYSVNDGAQLYMIDPSGVSYGYWGCAIGKARQAAKTEIEKLQMKEMTCRDIVKEVAKIIYIVHDEVKDKAFELELSWVGELTNGRHEIVPKDIREEAEKYAKESLKEEDESDDDNM
Consider B10, for which the “BA log fold change” value is listed as 1.09.

B11: SEC61A1 (protein)
chain: MTQTARVLVKFLEVIKPFCVILPEIQKPERKIQFKEKVLWTAITLFIFLVCCQIPLFGIMSSDSADPFYWMRVILASNRGTLMELGISPIVTSGLIMQLLAGAKIIEVGDTPKDRALFNGAQKLFGMIITIGQSIVYVMTGMYGDPSEMGAGICLLITIQLFVAGLIVLLLDELLQKGYGLGSGISLFIATNICETIVWKAFSPTTVNTGRGMEFEGAIIALFHLLATRTDKVRALREAFYRQNLPNLMNLIATIFVFAVVIYFQGFRVDLPIKSARYRGQYNTYPIKLFYTSNIPIILQSALVSNLYVISQMLSARFSGNLLVSLLGTWSDTSSGGPARAYPVGGLCYYLSPPESFGSVLEDPVHAVVYIVFMLGSCAFFSKTWIEVSGSSAKDVAKQLKEQQMVMRGHRETSMVHELNRYIPTAAAFGGLCIGALSVLADFLGAIGSGTGILLAVTIIYQYFEIFVKEQSEVGSMGALLF
In the case of B11, the “BA log fold change” value turned out to be 1.84.
